Key:
BSA = target: T1, BSA (UniProt P02769 25-607); assay: ELISA, coated BSA as negative control
T1 construct: also called coated BSA; negative control (BSA)

[1] = target: T2, mouse Endoglin on eEnd2 cells (mouse, UniProt Q63961 27-653); assay: flow cytometry on ENG-expressing mouse eEnd2 cells
T2 construct: also called ENG expressing mouse eEnd2
T2 sequence: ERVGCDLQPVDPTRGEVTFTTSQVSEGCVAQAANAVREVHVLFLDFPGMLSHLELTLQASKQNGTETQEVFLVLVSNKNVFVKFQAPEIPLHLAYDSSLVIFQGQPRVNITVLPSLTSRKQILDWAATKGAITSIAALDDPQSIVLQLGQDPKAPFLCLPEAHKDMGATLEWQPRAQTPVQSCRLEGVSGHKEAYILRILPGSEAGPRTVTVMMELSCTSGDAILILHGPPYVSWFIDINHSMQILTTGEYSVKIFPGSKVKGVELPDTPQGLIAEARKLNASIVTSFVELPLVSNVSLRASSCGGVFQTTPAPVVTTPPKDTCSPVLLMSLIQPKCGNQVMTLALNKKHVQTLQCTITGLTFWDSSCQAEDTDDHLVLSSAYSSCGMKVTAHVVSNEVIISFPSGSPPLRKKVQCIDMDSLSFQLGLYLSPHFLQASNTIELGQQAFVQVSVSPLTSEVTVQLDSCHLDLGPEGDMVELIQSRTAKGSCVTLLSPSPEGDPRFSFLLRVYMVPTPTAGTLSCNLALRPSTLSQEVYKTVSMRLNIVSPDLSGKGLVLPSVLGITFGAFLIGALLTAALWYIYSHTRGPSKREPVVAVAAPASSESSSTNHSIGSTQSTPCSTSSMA
Protocol: (§1) Cell binding was analyzed by flow cytometry, using ENG-positive HT1080 and ENG expressing mouse eEnd2.

[2] = target: T3, recombinant mouse ENG (aa 27-581) (mouse, UniProt Q63961 27-581); assay: ELISA on recombinant mouse ENG, detection with HRP-conjugated anti-human IgG
T3 construct: also called rmENG; recombinant mouse Endoglin
T3 sequence: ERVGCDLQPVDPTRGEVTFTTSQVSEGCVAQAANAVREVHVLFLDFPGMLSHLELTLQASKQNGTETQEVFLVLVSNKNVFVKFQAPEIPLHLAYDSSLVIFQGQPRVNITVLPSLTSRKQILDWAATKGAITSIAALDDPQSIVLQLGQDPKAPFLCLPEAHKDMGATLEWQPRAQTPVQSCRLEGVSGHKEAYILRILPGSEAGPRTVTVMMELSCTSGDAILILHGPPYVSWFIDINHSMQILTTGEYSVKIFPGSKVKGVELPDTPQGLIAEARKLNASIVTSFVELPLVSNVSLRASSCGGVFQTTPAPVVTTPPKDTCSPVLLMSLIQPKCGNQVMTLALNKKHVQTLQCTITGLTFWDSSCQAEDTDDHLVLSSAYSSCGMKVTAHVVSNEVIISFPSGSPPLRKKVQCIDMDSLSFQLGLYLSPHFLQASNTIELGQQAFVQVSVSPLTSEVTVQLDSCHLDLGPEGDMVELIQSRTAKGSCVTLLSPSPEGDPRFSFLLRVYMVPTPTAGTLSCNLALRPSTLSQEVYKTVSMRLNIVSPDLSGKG

[3] = target: T4, recombinant human Endoglin (human, UniProt P17813 26-586); assay: QCM (Attana A100) on rhENG; first of two constants
T4 construct: It states only that the extracellular domain is residues 26-561; also called rhENG; recombinant human ENG
T4 sequence: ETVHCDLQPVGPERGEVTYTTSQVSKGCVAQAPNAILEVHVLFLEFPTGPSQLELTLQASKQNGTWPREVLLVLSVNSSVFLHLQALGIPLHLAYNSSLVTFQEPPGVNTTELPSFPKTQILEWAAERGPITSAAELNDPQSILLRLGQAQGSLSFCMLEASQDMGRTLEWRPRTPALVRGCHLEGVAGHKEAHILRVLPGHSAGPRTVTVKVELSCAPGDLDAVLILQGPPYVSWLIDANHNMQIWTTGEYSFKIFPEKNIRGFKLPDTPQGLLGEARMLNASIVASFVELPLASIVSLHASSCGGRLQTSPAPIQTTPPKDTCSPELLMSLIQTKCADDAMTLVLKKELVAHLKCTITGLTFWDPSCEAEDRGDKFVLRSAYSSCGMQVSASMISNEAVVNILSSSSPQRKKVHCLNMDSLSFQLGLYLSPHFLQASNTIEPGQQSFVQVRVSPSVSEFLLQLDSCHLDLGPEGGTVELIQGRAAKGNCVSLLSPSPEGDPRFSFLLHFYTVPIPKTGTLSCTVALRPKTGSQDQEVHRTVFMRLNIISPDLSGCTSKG

[4] = target: T5, human Endoglin on HT1080 cells (human, UniProt P17813 26-658); assay: flow cytometry on ENG-positive HT1080 cells
T5 construct: also called ENG-positive HT1080
T5 sequence: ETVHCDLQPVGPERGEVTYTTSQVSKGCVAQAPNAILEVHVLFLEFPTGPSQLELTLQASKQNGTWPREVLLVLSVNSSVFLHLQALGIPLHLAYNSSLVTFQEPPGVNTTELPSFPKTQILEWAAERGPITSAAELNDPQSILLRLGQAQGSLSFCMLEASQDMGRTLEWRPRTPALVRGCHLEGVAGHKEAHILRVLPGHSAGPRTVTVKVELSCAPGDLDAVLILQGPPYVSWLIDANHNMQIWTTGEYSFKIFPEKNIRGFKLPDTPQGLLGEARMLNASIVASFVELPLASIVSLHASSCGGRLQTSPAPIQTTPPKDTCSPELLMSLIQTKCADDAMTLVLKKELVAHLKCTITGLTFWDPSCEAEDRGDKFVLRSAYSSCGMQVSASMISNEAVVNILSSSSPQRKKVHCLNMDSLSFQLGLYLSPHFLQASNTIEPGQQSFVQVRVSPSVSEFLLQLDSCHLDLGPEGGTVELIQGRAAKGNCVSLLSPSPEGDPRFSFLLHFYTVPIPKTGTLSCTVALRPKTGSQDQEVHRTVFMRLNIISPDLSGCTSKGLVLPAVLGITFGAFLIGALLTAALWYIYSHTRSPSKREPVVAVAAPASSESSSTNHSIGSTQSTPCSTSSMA
Protocol: as §1

[5] = target: T4, recombinant human Endoglin; assay: QCM (Attana A100) on rhENG; second of two constants (avidity contribution noted)

T1 sequence (P02769 25-607 limits assumed): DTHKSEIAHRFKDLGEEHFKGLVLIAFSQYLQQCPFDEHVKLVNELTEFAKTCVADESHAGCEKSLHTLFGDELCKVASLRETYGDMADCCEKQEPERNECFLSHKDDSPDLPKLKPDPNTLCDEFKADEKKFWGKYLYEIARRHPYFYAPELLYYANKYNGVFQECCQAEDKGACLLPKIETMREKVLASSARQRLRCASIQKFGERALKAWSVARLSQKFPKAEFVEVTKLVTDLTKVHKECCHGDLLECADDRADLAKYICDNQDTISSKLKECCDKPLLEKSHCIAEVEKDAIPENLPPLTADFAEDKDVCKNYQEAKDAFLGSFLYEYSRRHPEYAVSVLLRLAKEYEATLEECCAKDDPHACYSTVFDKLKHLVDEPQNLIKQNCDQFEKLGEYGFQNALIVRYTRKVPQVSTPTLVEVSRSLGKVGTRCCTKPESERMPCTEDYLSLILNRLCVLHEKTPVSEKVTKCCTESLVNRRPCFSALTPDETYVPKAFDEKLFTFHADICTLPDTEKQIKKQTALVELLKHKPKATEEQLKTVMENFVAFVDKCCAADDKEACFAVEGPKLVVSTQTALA

B1: anti-murine Endoglin mE12-IgG1 (antibody, V domains shown)
VH: EVQLVESGGGVVQPGRSLRLSCAASGFTFSSYGMHWVRQAPGKGLVWVSRINSDGSSTSYADSVKGRFTISRDNSKNTLYLQMNSLRAEDTAVYYCARATGTWVMSWGQGTLVTVSS
VL: SSELIQDPAVSVALGQTVRITCQGDSLRSYYASWYQQKPGQAPVLVIYGKNNRPSGIPDRFSGSSSGNTASLTITGAQAEDEADYYCNSRDSSGTVFGGGTKLTVLG
notes: Full-length human IgG1 (gamma1*/lambda, deficient for ADCC and CDC), made from the scFv mE12 and produced in CHO cells; also called anti-muENG mE12; OCMTX004p
binding result (BSA): no binding | EC50 [1]: 89 nM | EC50 [2]: 60 nM

B2: anti-human Endoglin A5-IgG1 (antibody, V domains shown)
VH: EVQLLESGGGLVQPGGSLRLSCAASGFTFSSYAMSWVRQAPGKGLEWVSAIYGSDGDTTYADSVKGRFTISRDNSKNTLYLQMNSLRAEDTAVYYCARVFYTAGFDYWGQGTLVTVSS
VL: DIELTQSPSSLSASVGDRVTITCRASQSISSSLNWYQQKPGKAPKLLIYAASSLQSGVPSRFSGSGSGTDFTLTISSLQPEDFATYYCQQAPAKPPTFGQGTKLEIKR
notes: Full-length human IgG1 (gamma1*/kappa, deficient for ADCC and CDC), made from the scFv A5 and produced in CHO cells; also called anti-huENG A5; A5 anti-huENG IgG1
Kd [3]: 260 nM | EC50 [4]: 0.4 nM | Kd [5]: 2.5 nM
